The record followed here is paper PMC12858348, “Structural basis underlying the autoinhibition of the formin FHOD1 and its phosphorylation-dependent activation” (The Journal of Biological Chemistry, 2025).

The assay concerns the target T1, His-tagged FHOD1-N3 (1–360) (human, UniProt Q9Y613 1-360).
T1 construct: human FHOD1, residues 1-360 (GBD and FH3 domains), from human FHOD1 cDNA in pProEX-HTb; also called FHOD1-N-WT; N-terminal region
T1 sequence (looked up): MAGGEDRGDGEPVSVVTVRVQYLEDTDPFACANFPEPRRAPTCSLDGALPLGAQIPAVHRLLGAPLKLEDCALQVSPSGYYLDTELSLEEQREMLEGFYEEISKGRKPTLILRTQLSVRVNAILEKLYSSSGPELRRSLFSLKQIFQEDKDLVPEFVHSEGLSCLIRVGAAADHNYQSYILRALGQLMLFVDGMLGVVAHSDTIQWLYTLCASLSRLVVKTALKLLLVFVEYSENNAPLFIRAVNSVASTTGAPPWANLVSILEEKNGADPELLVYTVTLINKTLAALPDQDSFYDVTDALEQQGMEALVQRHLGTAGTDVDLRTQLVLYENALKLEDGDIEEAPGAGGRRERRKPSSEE
Briefly: pull-down; 20 μg GST fusion protein (GST-DAD 1.25 μM) and 20 μg His-tagged protein (His-FHOD1-N3 1.0 μM) in 500 μl PBS pH 7.4 with 0.1% Triton X-100; glutathione-Sepharose 4B, 1 h at 4 °C; three washes; eluted with 10 mM glutathione; SDS-PAGE, CBB staining, densitometry. Particulars: both partners purified.

B1: GST-fused FHOD1–DAD (1081–1145) (domain or fragment, human, UniProt Q9Y613 1081-1145, looked up)
chain: MPTVGPSTASPEEPPGSSLPSDTSDEIMDLLVQSVTKSSPRALAARERKRSRGNRKSLRRTLKSG
notes: human FHOD1, residues 1081-1145 (diaphanous autoregulatory domain), in pGEX-6P; also called DAD-WT; GST-DAD; source: E. coli BL21, purified (glutathione-Sepharose-4B)
As for B1, the binding result is “binds”.

B2: GST-fused FHOD1–DAD (1081–1145) M1108A (domain or fragment, human, UniProt Q9Y613 1081-1145, looked up)
chain: MPTVGPSTASPEEPPGSSLPSDTSDEIADLLVQSVTKSSPRALAARERKRSRGNRKSLRRTLKSG
notes: human FHOD1, residues 1081-1145 (DAD), M1108A in the core motif; also called DAD-M1108A; source: E. coli BL21, purified (glutathione-Sepharose-4B)
As to B2, the binding result is recorded as “binds”.
